Laboratory results taken from paper PMC12748791 (Nature Communications, 2025).

Target: the molecule itself
Experiment: cryo-EM structure; full-length AE1 from DSP-cross-linked human erythrocyte ghost membranes in MSP-1E3D1/POPC nanodiscs; dimer configurations IF1/OF, OF/OF and IF1/IF2 separated by 3D classification

B1: Anion Exchanger 1 (AE1) (natural protein, human, UniProt P02730 1-911, looked up)
chain: MEELQDDYEDMMEENLEQEEYEDPDIPESQMEEPAAHDTEATATDYHTTSHPGTHKVYVELQELVMDEKNQELRWMEAARWVQLEENLGENGAWGRPHLSHLTFWSLLELRRVFTKGTVLLDLQETSLAGVANQLLDRFIFEDQIRPQDREELLRALLLKHSHAGELEALGGVKPAVLTRSGDPSQPLLPQHSSLETQLFCEQGDGGTEGHSPSGILEKIPPDSEATLVLVGRADFLEQPVLGFVRLQEAAELEAVELPVPIRFLFVLLGPEAPHIDYTQLGRAAATLMSERVFRIDAYMAQSRGELLHSLEGFLDCSLVLPPTDAPSEQALLSLVPVQRELLRRRYQSSPAKPDSSFYKGLDLNGGPDDPLQQTGQLFGGLVRDIRRRYPYYLSDITDAFSPQVLAAVIFIYFAALSPAITFGGLLGEKTRNQMGVSELLISTAVQGILFALLGAQPLLVVGFSGPLLVFEEAFFSFCETNGLEYIVGRVWIGFWLILLVVLVVAFEGSFLVRFISRYTQEIFSFLISLIFIYETFSKLIKIFQDHPLQKTYNYNVLMVPKPQGPLPNTALLSLVLMAGTFFFAMMLRKFKNSSYFPGKLRRVIGDFGVPISILIMVLVDFFIQDTYTQKLSVPDGFKVSNSSARGWVIHPLGLRSEFPIWMMFASALPALLVFILIFLESQITTLIVSKPERKMVKGSGFHLDLLLVVGMGGVAALFGMPWLSATTVRSVTHANALTVMGKASTPGAAAQIQEVKEQRISGLLVAVLVGLSILMEPILSRIPLAVLFGIFLYMGVTSLSGIQLFDRILLLFKPPKYHPDVPYVKRVKTWRMHLFTGIQIICLAVLWVVKSTPASLALPFVLILTVPLRRVLLPLIFRNVELQCLDADDAKATFDEEEGRDEYDEVAMPV
modifications: N-linked glycosylation at N642; lysines cross-linked with DSP (K539 and K851)
notes: Anion exchanger 1 (band 3), human, 911 residues: cytosolic domain 1-347, linker 348-370, transmembrane domain 371-911; the full-length protein was purified, only the transmembrane domain was resolved in the maps; Native protein from red blood cells; held in lipid nanodiscs (MSP-1E3D1, POPC) with PIP2 and POPC lipids at the dimer interface; also called band 3; SLC4A1
stoichiometry N: 2
